The target of experiment [1] is T1, human FcRn (human, UniProt P55899 24-297; P61769 21-119, limits assumed).
T1 construct: also called recombinant FcRn proteins
Nature of the experiment: SPR, recombinant human FcRn immobilized on chip; Steady State. Background: Surface plasmon resonance follows binding to a sensor surface in real time, without labels.

For experiment [2], the target named is T2, Human NKp46 recombinant protein (human, UniProt O76036 22-258, limits assumed).
T2 construct: Soluble analyte in SPR; also called recombinant human NKp46 proteins
T2 sequence (O76036 22-258 limits assumed): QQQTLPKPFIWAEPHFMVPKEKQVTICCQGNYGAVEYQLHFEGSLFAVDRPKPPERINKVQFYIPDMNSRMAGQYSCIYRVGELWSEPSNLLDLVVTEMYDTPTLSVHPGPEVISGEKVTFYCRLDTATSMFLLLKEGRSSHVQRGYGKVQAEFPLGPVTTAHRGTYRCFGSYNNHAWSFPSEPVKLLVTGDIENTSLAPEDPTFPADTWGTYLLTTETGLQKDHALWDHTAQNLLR
Put plainly: SPR (Biacore T100), captured on Protein-A chip, recombinant human NKp46 6.25-400 nM, 1:1 kinetic model. As to the method:
SPR measurements were performed on a Biacore T100 apparatus (Biacore GE Healthcare) at 25° C. In all Biacore experiments HBS-EP+ (Biacore GE Healthcare) and NaOH 10 mM served as running buffer and regeneration buffer respectively. Sensorgrams were analyzed with Biacore T100 Evaluation software. Protein-A was purchased from (GE Healthcare). Human NKp46 recombinant proteins were cloned, produced and purified at Innate Pharma.
Protein-A proteins were immobilized covalently to carboxyl groups in the dextran layer on a Sensor Chip CMS. The chip surface was activated with EDC/NHS (N-ethyl-N′-(3-dimethylaminopropyl) carbodiimidehydrochloride and N-hydroxysuccinimide (Biacore GE Healthcare)). Protein-A was diluted to 10 μg/ml in coupling buffer (10 mM acetate, pH 5.6) and injected until the appropriate immobilization level was reached (i.e. 2000 RU). Deactivation of the remaining activated groups was performed using 100 mM ethanolamine pH 8 (Biacore GE Healthcare).
Monovalent affinity study was conducted following a regular Capture-Kinetic protocol recommended by the manufacturer (Biacore GE Healthcare kinetic wizard). Seven serial dilutions of human NKp46 recombinant proteins, ranging from 6.25 to 400 nM were sequentially injected over the captured Bi-Specific antibodies and allowed to dissociate for 10 min before regeneration. The entire sensorgram sets were fitted using the 1:1 kinetic binding model.

T1 sequence (P55899 24-297 limits assumed, chain 1 of 2): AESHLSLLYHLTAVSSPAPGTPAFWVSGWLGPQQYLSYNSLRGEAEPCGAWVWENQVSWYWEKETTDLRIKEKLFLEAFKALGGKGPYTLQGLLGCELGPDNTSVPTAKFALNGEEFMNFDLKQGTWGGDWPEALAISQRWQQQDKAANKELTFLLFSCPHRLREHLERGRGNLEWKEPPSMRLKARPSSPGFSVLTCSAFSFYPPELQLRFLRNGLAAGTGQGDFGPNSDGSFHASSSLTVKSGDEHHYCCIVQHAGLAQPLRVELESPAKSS
T1 sequence (P61769 21-119 limits assumed, chain 2 of 2): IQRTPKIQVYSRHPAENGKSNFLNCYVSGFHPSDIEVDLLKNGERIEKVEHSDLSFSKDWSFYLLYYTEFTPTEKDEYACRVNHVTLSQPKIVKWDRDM

B1: CD19-F9A-NKp46-3 (bispecific antibody, human IgG1, kappa)
chain 1: not shown
chain 2: DIVMTQSPATLSVTPGDRVSLSCRASQSISDYLHWYQQKSHESPRLLIKYASQSISGIPSRFSGSGSGSDFTLSINSVEPEDVGVYYCQNGHSFPLTFGAGTKLELKASTKGPSVFPLAPSSKSTSGGTAALGCLVKDYFPEPVTVSWNSGALTSGVHTFPAVLQSSGLYSLSSVVTVPSSSLGTQTYICNVNHKPSNTKVDKRVEPKSCDKTH
chain 3: not shown
notes: Heterotrimer, monomeric Fc with tandem CH3, N297S, wild-type hinge cysteines
B1: the Kd in experiment [1] was 858 nM. Besides, in experiment [2], the dissociation constant (Kd) worked out at 32 nM, the koff was 0.00669 s⁻¹ and the association rate constant (kon) was 207000 M⁻¹ s⁻¹.

A word on the Kd: it is the constant that tells how readily two partners part at equilibrium. As a reminder, the koff is the rate constant with which the complex falls apart. By kon is commonly meant a measure of how fast the partners come together.

These data come from US20200048345A1 (INNATE PHARMA, published 2020).
